The source of these data is patent US20220143213.

The target of data set [1] is IgG present within primate serum.
Data set [2] deals with IgG present within mouse serum.
Data set [3] concerns the target IgG present within human serum.
The target of data set [4] is human intravenous immunoglobulin (IVIG).

B1: recombinant IdeZ (NEB P0770S or Genscript) (protein)
chain: MKTIAYPNKPHSLSAGLLTAIAIFSLASSNITYADDYQRNATEAYAKEVPHQITSVWSKGVTPLTPEQFRYNNEDVIHAPYLAHQGWYDITKAFDGKDNLLCGAATAGNMLHWWFDQNKTEIEAYLSKHPEKQKIIFNNQELFDLKAAIDTKDSQTNSQLFNYFRDKAFPNLSARQLGVMPDLVLDMFINGYYLNVFKTQSTDVNRPYQDKDKRGGIFDAVFTRGDQTTLLTARHDLKNKGLNDISTIIKQELTEGRALALSHTYANVSISHVINLWGADFNAEGNLEAIYVTDSDANASIGMKKYFVGINAHGHVAISAKKIEGENIGAQVLGLFTLSSGKDIWQKLS
Consider B1, for which the “IgG cleavage, reducing SDS-PAGE with Coomassie stain” value in data set [1], in data set [2] and in data set [3] was “IgG present within serum was cleaved by IdeZ” each time. Also, the “IgG cleavage, SDS-PAGE” value in the data set with IgG from dog serum is “IdeZ can cleave IgG from dog serum”. The “IgG cleavage, reducing SDS-PAGE with Coomassie stain (Donors 1-5)” value in data set [3] is reported as “IdeZ also cleaved IgG in serum samples from additional human patients (Donors 1-5)”. Also, the “IVIG cleavage in vitro, reducing SDS-PAGE with Coomassie stain” value in data set [4] is on record as “IdeZ cleaved human IVIG in vitro”.

B2: recombinant GST-IdeZ (N-terminally GST tagged IdeZ fusion) (protein)
chain: MKTIAYPNKPHSLSAGLLTAIAIFSLASSNITYADDYQRNATEAYAKEVPHQITSVWSKGVTPLTPEQFRYNNEDVIHAPYLAHQGWYDITKAFDGKDNLLCGAATAGNMLHWWFDQNKTEIEAYLSKHPEKQKIIFNNQELFDLKAAIDTKDSQTNSQLFNYFRDKAFPNLSARQLGVMPDLVLDMFINGYYLNVFKTQSTDVNRPYQDKDKRGGIFDAVFTRGDQTTLLTARHDLKNKGLNDISTIIKQELTEGRALALSHTYANVSISHVINLWGADFNAEGNLEAIYVTDSDANASIGMKKYFVGINAHGHVAISAKKIEGENIGAQVLGLFTLSSGKDIWQKLS
B2: the “IgG cleavage, SDS-PAGE with Coomassie stain (heavy chain cleavage product ~31 kDa)” value in data set [1] was “GST-IdeZ cleaved IgG present within human and primate serum”; in data set [3], “GST-IdeZ cleaved IgG present within human and primate serum”. Besides, in data set [4], the “IVIG cleavage in vitro, reducing SDS-PAGE with Coomassie stain” value is listed as “IdeZ cleaved human IVIG in vitro”.
